B1: rbVEGF165: commercially available recombinant VEGF165 produced in bacteria (protein)
chain: APMAEGGGQNHHEVVKFMDVYQRSYCHPIETLVDIFQEYPDEIEYIFKPSCVPLMRCGGCCNDEGLECVPTEESNITMQIMRIKPHQGQHIGEMSFLQHNKCECRPKKDRARQENPCGPCSERRKHLFVQDPQTCKCSCKNTDSRCKARQLELNERTCRCDKPRR
B2: VEGF121: known VEGF isoform, recombinant, produced in HEK293 cells (protein)
chain: APMAEGGGQNHHEVVKFMDVYQRSYCHPIETLVDIFQEYPDEIEYIFKPSCVPLMRCGGCCNDEGLECVPTEESNITMQIMRIKPHQGQHIGEMSFLQHNKCECRPKKDRARQEKCDKPRR
B3: VEGF111: new VEGF isoform lacking exons 5 to 7, SEQ ID NO:2; recombinant, produced in HEK293 cells (protein, listed as Homo sapiens)
chain: MNFLLSWVHWSLALLLYLHHAKWSQAAPMAEGGGQNHHEVVKFMDVYQRSYCHPIETLVDIFQEYPDEIEYIFKPSCVPLMRCGGCCNDEGLECVPTEESNITMQIMRIKPHQGQHIGEMSFLQHNKCECRPCGPCSERRKHLFVQDPQTCKCSCKNTDSRCKARQLELNERTCRCDKPRR

Columns and labels:
ERK1/2 = assay: Activation of ERK1/2 signalling in HUVEC, western blotting; format: cell-based, human; settings: HUVEC starved overnight, treated 5 min
Method: (§1) FIG. 4: VEGF111 is biologically active in vitro. A and B: VEGF111 activates VEGF-R2 (A) and ERK1/2 (B) in HUVEC. HUVEC were treated with HEK293 conditioned mediums containing VEGF111, VEGF121 or VEGF165, commercially available recombinant VEGF165 produced in bacteria (cVEGF) (20 ng/ml each) or fetal calf serum (FCS, 10%) for 5 minutes. Untreated cells (−) or cells treated with conditioned medium of control HEK293 cells (CM) served as control. Total and phosphorylated VEGF-R2 and ERK1/2 were measured by western blotting. C: VEGF111 promotes proliferation of HUVEC. HUVEC were treated with HEK293 conditioned mediums containing VEGF111(black circles), VEGF121 (open triangles) or VEGF165 (black triangles) (10 ng/ml) or conditioned medium from control HEK293 cells (open circles). The DNA was measured in triplicate wells harvested at increasing time of treatment. D: representative microphotograph of -embryoid bodies after immunofluorescent labeling of CD31 as marker of vasculature. Bar: […]. E: A number of microphotographs (of 6 embryoid bodies from 3 independent experiments for each treatment) were taken at random and analyzed by 5 investigators not aware of the treatments, and a score (from 0 to 3, where 0 indicates lack of vascular labeling, and 3 maximum labeling) was given to each sample. F: CD31 mRNA level was measured in embryoid bodies (10 samples in 3 independent experiment for each group) as described in Material and Methods. Statistical analysis was performed using the homoscedastic Student T test. *: p<0.05; **: p<0.01; ***: p<0.001
The proteins were migrated onto polyacrylamide gels and transferred onto PVDF transfer membranes (NEN, Boston, Mass.) by electroblotting. The membranes were blocked by non-fat dry milk (3% in PBS-tween buffer) and probed with first and horseradish peroxidase-conjugated secondary antibodies. Signals were detected by chemiluminescence using a ECL Western Blotting Analysis system (Amersham, Little Chalfont, England) and X-ray film exposure and quantified using a Fluor-S MultiImager (BioRad, Hercules, Calif.).
VEGF induces a number of effects in endothelial cells, including autophosphorylation of its receptors, activation of the ERK1/2 MAPkinases pathways, induction of calcium transients and increased proliferation. The in vitro effects of recombinants VEGFs on HUVEC were compared. HUVEC were starved overnight and treated for five min. with reVEGFs. […] Conditioned medium from HEK293 cells transfected with the empty vector had no effect. To further confirm the biological activity of VEGF111 the activation of ERK1/2 signalling pathways was investigated by western blotting using monoclonal phospho-specific antibodies. HUVEC were starved overnight and treated with the three reVEGF isoforms, as well as rbVEGF165, for 5 min. […]

HUVEC [1] = assay: Intracellular calcium transients in HUVEC (Fluo3, confocal microscopy); format: cell-based, human; settings: conditioned medium with 10 ng VEGF, control medium about 15%
Method: HUVEC were plated for 18 hours in MCDB-131 medium containing 20% FCS in borosilicate culture chambers (Lab-Tek®, Nunc, Rochester N.Y.) coated with gelatin, rinsed with serum-free medium, incubated with the fluorophore Fluo3-AM (10 μM, Molecular Probes, Eugene, Oreg.) in serum-free medium for two hours and washed. The observation of the fluorescence emitted by the Fluo3-labeled cells started 5 minutes after the last washing. Microscope fields randomly selected were examined by a confocal microscope (Meridian, Akemos, Mich.). The Fluo3-loaded cells were excited by an Argon LASER at 488 nm and the emitted fluorescence recorded at 530 nm in each cell of the field by real time imaging. Image processing and data computing were performed using the Meridian software. The intensity of the emitted fluorescence was recorded every second during 4 minutes. As the overall fluorescence intensity varied from cell to cell, the level of fluorescence of each cell at the beginning of the recording was normalised to one arbitrary unit. The baseline of resting cells spontaneously oscillated by ±10% around the level of the first image acquisition. After a 20 second period of baseline recording, 10-20 μL of conditioned medium from HEK293 cells expressing or not VEGF111, VEGF121 or VEGF165 (10 ng) were added gently on the cells under microscopic examination. A 20% rise above the baseline was considered as a significant calcium rise and the cell regarded as responsive. The results were expressed as the percentage of responding cells.
The induction of calcium transients by the various reVEGFs was investigated on HUVEC by real-time fluorescent microscopy as described. As the calcium concentration in resting cells spontaneously varied by about 10% around the baseline, cells were defined as responsive when the treatments induced a peak of calcium at least 20% above the baseline. HUVEC were treated with conditioned mediums from control HEK293 cells or cells expressing VEGF111, VEGF121 and VEGF165.

[2] = Degradation of recombinant VEGF by chronic wound fluid, western blotting; format: in vitro ADME; settings: for susceptibility to proteolytic degradation by plasmin and fluids from chronic ulcers: summary statement
Method: (§2) FIG. 7: VEGF111 is resistant to degradation by fluids collected from chronic wound. A: Conditioned media containing 20 ng of recombinant VEGF as produced above were treated with chronic wound fluid collected in one patient (20 μl at 37° C.) for indicated times and analysed by western blotting using anti-VEGF antibodies. B: HUVEC were treated with recombinant VEGF111, VEGF121 or VEGF165 produced in HEK293 cells, or with commercially available VEGF165 or the carrier alone, untreated or treated with fluids from chronic wounds (20 μl at 37° C. for 24 hours), and cell multiplication was measured by incorporation of ^3H-thymidine.
Conditioned media containing 20 ng of recombinant VEGF as produced above were treated with chronic wound fluid collected in one patient (20 μl at 37° C.) for indicated times and analysed by western blotting using anti-VEGF antibodies (FIG. 7A). […] FIG. 7B depicts the effect of treatment with chronic wound fluids on the mitogenic activity of the recombinants VEGF on HUVEC.

HUVEC [3] = assay: HUVEC proliferation (DNA measurement); format: cell-based, human; settings: 10 ng/ml, medium renewed every two days
Method: as §1
15000 HUVEC were seeded in gelatin-coated wells of 24 multiwells dishes in the presence of FCS. […] Cells were collected at various times and the DNA was measured by fluorimetry on a SpectraMax Gemini XS apparatus (Molecular Devices, England) after labeling with bis-benzimide. In some experiments, ^3H-thymidine (1 μM, 2.5 Ci/mol, NEN, Wellesley, Mass., USA) was added to cell cultures at day two and the trichloracetic acid-precipitable radioactivity was measured after 18 hours. […]

HUVEC [4] = assay: Mitogenic activity on HUVEC of VEGF pre-treated with plasmin or chronic wound fluids (3H-thymidine incorporation); format: cell-based, human; settings: summary statement, FIG. 6B, 7B
Method: (§3) Recombinant VEGF165, VEGF121 or VEGF111 were produced in HEK293 cells. […] The figure depicts the percentage of degradation of each VEGF by comparison with untreated samples.
as §2
15000 HUVEC were seeded in gelatin-coated wells of 24 multiwells dishes in the presence of FCS. After three hours, the medium was replaced by fresh medium containing or not VEGF and renewed every two days. Cells were collected at various times and the DNA was measured by fluorimetry on a SpectraMax Gemini XS apparatus (Molecular Devices, England) after labeling with bis-benzimide. In some experiments, ^3H-thymidine (1 μM, 2.5 Ci/mol, NEN, Wellesley, Mass., USA) was added to cell cultures at day two and the trichloracetic acid-precipitable radioactivity was measured after 18 hours.

plasmin = plasmin (Homo sapiens, UniProt P00747); assay: Degradation of recombinant VEGF by plasmin, western blotting; format: in vitro ADME; settings: 20 ng reVEGF, plasmin 0.04 to 0.32 units/ml, 4 hours
Method: as §3
To facilitate the analysis of the electrophoretic patterns they were further treated with PNGase as described above and the products of the reactions were analysed by western blotting. […] FIG. 6A depicts the percentage of degradation of each VEGF by comparison with untreated samples.

[5] = target: recombinant VEGF165 produced in HEK293 cells (UniProt P15692)
[6] = target: recombinant VEGF121 produced in HEK293 cells (UniProt P15692)
[7] = test system: recombinant VEGF111 produced in HEK293 cells

plasmin (Homo sapiens, UniProt P00747), sequence (P00747 581-810 limits assumed, species assumed): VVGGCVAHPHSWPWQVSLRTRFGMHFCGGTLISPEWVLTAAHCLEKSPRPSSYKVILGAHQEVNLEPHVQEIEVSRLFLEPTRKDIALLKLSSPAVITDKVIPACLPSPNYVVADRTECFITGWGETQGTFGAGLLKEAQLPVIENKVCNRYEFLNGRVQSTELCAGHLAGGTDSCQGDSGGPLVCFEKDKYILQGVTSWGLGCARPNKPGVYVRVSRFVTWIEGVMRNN
plasmin (Homo sapiens, UniProt P00747), sequence (P00747 97-580 partner limits assumed, species assumed): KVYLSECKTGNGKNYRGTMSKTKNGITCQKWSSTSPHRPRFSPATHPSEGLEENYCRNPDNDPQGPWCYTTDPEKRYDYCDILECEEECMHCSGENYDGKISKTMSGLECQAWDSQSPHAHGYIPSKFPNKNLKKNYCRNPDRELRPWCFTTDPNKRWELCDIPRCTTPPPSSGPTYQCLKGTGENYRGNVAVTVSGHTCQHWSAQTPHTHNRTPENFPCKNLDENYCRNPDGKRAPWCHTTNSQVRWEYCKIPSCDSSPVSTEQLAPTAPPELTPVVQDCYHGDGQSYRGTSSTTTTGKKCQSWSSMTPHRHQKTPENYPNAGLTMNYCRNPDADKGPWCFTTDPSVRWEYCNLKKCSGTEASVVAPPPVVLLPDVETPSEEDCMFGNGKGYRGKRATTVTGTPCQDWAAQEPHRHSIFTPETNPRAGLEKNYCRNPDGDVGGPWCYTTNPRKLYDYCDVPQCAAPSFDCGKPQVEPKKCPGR

| Molecule | phosphorylation of ERK1/2 (ERK1/2) | percentage of responding cells (calcium transients, peak at least 20% above baseline) (HUVEC [1]) | susceptibility to proteolytic degradation by plasmin and fluids from chronic ulcers [2] | increase of proliferation rate as compared to control conditioned medium (HUVEC [3]) | effect of treatment by plasmin or fluids from non-healing wounds on the activity of the VEGF (HUVEC [4]) | degradation by plasmin (western blotting) (plasmin) | dose of plasmin that cleaves VEGF by 50% [5] | dose of plasmin that cleaves VEGF by 50% [6] | dose of plasmin that cleaves VEGF by 50% [7] | degradation by chronic wound fluid ([2]; 20 ng VEGF, 20 μl wound fluid of one patient, 37° C., after 24 hrs) | dose of plasmin that cleaves VEGF by 50% (plasmin; 37° C.) |
| --- | --- | --- | --- | --- | --- | --- | --- | --- | --- | --- | --- |
| VEGF165: known VEGF isoform, recombinant, produced in HEK293 cells [reference compound] | induced | 70% | susceptible | 2.5 fold | reduces or suppresses | progressively degraded |  |  |  |  |  |
| plasmin |  |  |  |  |  |  | comprised between 0.05 and 0.07 U/ml for VEGF165 and VEGF121 | comprised between 0.05 and 0.07 U/ml for VEGF165 and VEGF121 | above 0.32 U/ml for VEGF111 |  |  |
| B1 | induced |  |  |  |  |  |  |  |  |  |  |
| B2 | induced | 70% | susceptible | 2 fold | reduces or suppresses | progressively degraded |  |  |  |  |  |
| B3 | induced | 70% |  | 2 fold | does not affect | unaffected |  |  |  | no detectable degradation | above 0.32 U/ml |

Reference: patent publication US20100287625A1, “VEGF VARIANTS” (UNIVERSITE DE LIEGE, priority 2006, published 2010)
